Test results reported in the supplement of paper PMC10567573.

B1: BCL2L13 (parent)
chain: QSLDQEILLKVKTEIEEELKSLDK

Variants of: B1
Experiment: protein stability index of a GFP-peptide fusion (GPS, HEK-293T) (PSI 1-6); higher = more stable
Settings: c terminus: a fixed tail appended
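Further: lentivirally expressed fusions sorted by FACS into six bins by GFP to DsRed ratio, PSI derived from sequencing read proportions per bin multiplied by bin number.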

Protein stability index, by site and new letter:
D23: E 4.29; A 2.63; C 3.42
L19: H 4.97; M 5.4; F 4.76; Q 5.49; E 5.71; C 5.02; I 4.65; N 5; D 5.77; A 5.68; W 4.46; P 5.64; R 5.57; T 5.48; G 5.03; Y 5.05; S 5; V 5.63; K 5.19
I15: K 5.41; N 5.58; Q 5.46; T 5.76; H 5.29; D 5.89; W 4.45; Y 4.88; A 5.33; G 5.61; E 5.8; F 5.36; M 5.08; C 5.12; L 4.85; S 5.72; P 5.92; V 5.08
E16: K 4.76; P 4.69; T 4.72; Q 5.04; V 3.69; G 5.21; M 3.09; I 4.35; D 5.17; F 3.53; H 4.4; L 3.23; A 4.6; R 4.79; W 3.66; C 3.97; S 4.93; Y 3.87; N 5.02
E18: A 4.02; Y 2.17; T 3.92; S 4.61; D 5.58; V 3.69; R 4.16; N 4.4; L 3.06; F 3.8; I 2.58; K 3.74; G 4.62; C 3.41; H 4.05; P 4.32; W 2.8; Q 3.88; M 1.98
K20: Q 4.63; H 4.48; N 5.17; L 4.56; C 4.9; T 5.09; R 5.18; A 5.08; W 4.91; E 5.67; P 5.35; F 4.2; M 4.48; I 4.56; G 5.03; S 5.33; D 4.86; V 5.11; Y 4.3
S21: D 5.47; Y 4.25; L 4.46; M 4.67; R 4.42; H 4.44; A 4.83; N 5.38; P 4.97; G 5.35; V 4.73; C 4.98; I 4.77; K 4.83; F 4.72; T 4.59; W 3.57; Q 4.86
E14: M 3.7; S 4.99; I 2.92; W 2.47; G 5.05; Y 3.16; P 4.31; Q 4.84; L 2.82; V 3.48; K 4.15; N 4.58; H 4.26; R 3.85; T 4.46
L22: H 5.47; E 4.58; Y 5.02; Q 5.3; D 5.74; T 5.13; I 4.49; P 5.67; W 4.34; F 5.37; R 4.67; C 5.34; K 5.47; N 5.16; S 5.41; A 4.81; V 5.2; M 5.12
E17: C 3.87; R 3.99; L 3.72; K 4.41; Y 3.67; M 4.08; S 4.81; A 4.57; N 4.11; T 4.1; W 3.51; G 4.93; D 5.13; V 2.69; Q 4.56; H 4.51; I 3.49; F 3.54; P 4.95
